The values that follow come from publication doi:10.1101/390674 (bioRxiv, 2018).

This test addresses ribosomal protein uL16 (Escherichia coli (strain MRE600), UniProt P0ADY7 1-136). Nature of the test: cryo-EM structure.

B1: initiation factor 2, γ-isoform (natural protein)
chain: not shown
Turning to B1, the binding result is “binds”.
